This note sets out measurements from US20240240209A1, “SYNTHESIS OF ENANTIOPURE CIS-A-IRONE FROM A RENEWABLE CARBON SOURCE” (Agency for Science, Technology and Research, priority 2021, published 2024).

Sequences and labels used below:
B1: pMT1_E153S: pMT1 with E153S (protein)
chain: MPQEARTPQQQVTADEVGDWYDKFGEVYHLTLGESVHCGLWFPPDAPVPQDMELVTMSSQAQDRYTDYLIETLDPKAGQHLLDIGCGTGRTALKAARQRGIAVTGVAVSKEQIAAANRLAAGHGLTERLTFEVADAMRLPYEDESFDCAWAISSLCHMDRAKALGEAWRVLKPGGDLLVLESVVTEELTEPETALFETLYAANVPPRLGEFFDIVSGAGFHTLSLKDLSANLAMTMNVFALGVYSRRAEFTERFGAEFVDGLLAGLGSAQETLIRKTRFFMATLRKPAV
B2: pMT1_E153W: pMT1 with E153W (protein)
chain: MPQEARTPQQQVTADEVGDWYDKFGEVYHLTLGESVHCGLWFPPDAPVPQDMELVTMSSQAQDRYTDYLIETLDPKAGQHLLDIGCGTGRTALKAARQRGIAVTGVAVSKEQIAAANRLAAGHGLTERLTFEVADAMRLPYEDESFDCAWAIWSLCHMDRAKALGEAWRVLKPGGDLLVLESVVTEELTEPETALFETLYAANVPPRLGEFFDIVSGAGFHTLSLKDLSANLAMTMNVFALGVYSRRAEFTERFGAEFVDGLLAGLGSAQETLIRKTRFFMATLRKPAV
B3: pMT1_E153V: pMT1 with E153V (protein)
chain: MPQEARTPQQQVTADEVGDWYDKFGEVYHLTLGESVHCGLWFPPDAPVPQDMELVTMSSQAQDRYTDYLIETLDPKAGQHLLDIGCGTGRTALKAARQRGIAVTGVAVSKEQIAAANRLAAGHGLTERLTFEVADAMRLPYEDESFDCAWAIVSLCHMDRAKALGEAWRVLKPGGDLLVLESVVTEELTEPETALFETLYAANVPPRLGEFFDIVSGAGFHTLSLKDLSANLAMTMNVFALGVYSRRAEFTERFGAEFVDGLLAGLGSAQETLIRKTRFFMATLRKPAV
B4: pMT1_E153T: pMT1 with E153T (protein)
chain: MPQEARTPQQQVTADEVGDWYDKFGEVYHLTLGESVHCGLWFPPDAPVPQDMELVTMSSQAQDRYTDYLIETLDPKAGQHLLDIGCGTGRTALKAARQRGIAVTGVAVSKEQIAAANRLAAGHGLTERLTFEVADAMRLPYEDESFDCAWAITSLCHMDRAKALGEAWRVLKPGGDLLVLESVVTEELTEPETALFETLYAANVPPRLGEFFDIVSGAGFHTLSLKDLSANLAMTMNVFALGVYSRRAEFTERFGAEFVDGLLAGLGSAQETLIRKTRFFMATLRKPAV
B5: pMT1_M236T: pMT1 with M236T (protein)
chain: MPQEARTPQQQVTADEVGDWYDKFGEVYHLTLGESVHCGLWFPPDAPVPQDMELVTMSSQAQDRYTDYLIETLDPKAGQHLLDIGCGTGRTALKAARQRGIAVTGVAVSKEQIAAANRLAAGHGLTERLTFEVADAMRLPYEDESFDCAWAIESLCHMDRAKALGEAWRVLKPGGDLLVLESVVTEELTEPETALFETLYAANVPPRLGEFFDIVSGAGFHTLSLKDLSANLAMTTNVFALGVYSRRAEFTERFGAEFVDGLLAGLGSAQETLIRKTRFFMATLRKPAV
B6: pMT1_M236V (protein)
chain: MPQEARTPQQQVTADEVGDWYDKFGEVYHLTLGESVHCGLWFPPDAPVPQDMELVTMSSQAQDRYTDYLIETLDPKAGQHLLDIGCGTGRTALKAARQRGIAVTGVAVSKEQIAAANRLAAGHGLTERLTFEVADAMRLPYEDESFDCAWAIESLCHMDRAKALGEAWRVLKPGGDLLVLESVVTEELTEPETALFETLYAANVPPRLGEFFDIVSGAGFHTLSLKDLSANLAMTVNVFALGVYSRRAEFTERFGAEFVDGLLAGLGSAQETLIRKTRFFMATLRKPAV
B7: pMT1_M236Y: pMT1 with M236Y (protein)
chain: MPQEARTPQQQVTADEVGDWYDKFGEVYHLTLGESVHCGLWFPPDAPVPQDMELVTMSSQAQDRYTDYLIETLDPKAGQHLLDIGCGTGRTALKAARQRGIAVTGVAVSKEQIAAANRLAAGHGLTERLTFEVADAMRLPYEDESFDCAWAIESLCHMDRAKALGEAWRVLKPGGDLLVLESVVTEELTEPETALFETLYAANVPPRLGEFFDIVSGAGFHTLSLKDLSANLAMTYNVFALGVYSRRAEFTERFGAEFVDGLLAGLGSAQETLIRKTRFFMATLRKPAV
B8: pMT1_M236W: pMT1 with M236W (protein)
chain: MPQEARTPQQQVTADEVGDWYDKFGEVYHLTLGESVHCGLWFPPDAPVPQDMELVTMSSQAQDRYTDYLIETLDPKAGQHLLDIGCGTGRTALKAARQRGIAVTGVAVSKEQIAAANRLAAGHGLTERLTFEVADAMRLPYEDESFDCAWAIESLCHMDRAKALGEAWRVLKPGGDLLVLESVVTEELTEPETALFETLYAANVPPRLGEFFDIVSGAGFHTLSLKDLSANLAMTWNVFALGVYSRRAEFTERFGAEFVDGLLAGLGSAQETLIRKTRFFMATLRKPAV
B9: pMT1_R160T: pMT1 with R160T (protein)
chain: MPQEARTPQQQVTADEVGDWYDKFGEVYHLTLGESVHCGLWFPPDAPVPQDMELVTMSSQAQDRYTDYLIETLDPKAGQHLLDIGCGTGRTALKAARQRGIAVTGVAVSKEQIAAANRLAAGHGLTERLTFEVADAMRLPYEDESFDCAWAIESLCHMDTAKALGEAWRVLKPGGDLLVLESVVTEELTEPETALFETLYAANVPPRLGEFFDIVSGAGFHTLSLKDLSANLAMTMNVFALGVYSRRAEFTERFGAEFVDGLLAGLGSAQETLIRKTRFFMATLRKPAV
B10: pMT1_R160Y (protein)
chain: MPQEARTPQQQVTADEVGDWYDKFGEVYHLTLGESVHCGLWFPPDAPVPQDMELVTMSSQAQDRYTDYLIETLDPKAGQHLLDIGCGTGRTALKAARQRGIAVTGVAVSKEQIAAANRLAAGHGLTERLTFEVADAMRLPYEDESFDCAWAIESLCHMDYAKALGEAWRVLKPGGDLLVLESVVTEELTEPETALFETLYAANVPPRLGEFFDIVSGAGFHTLSLKDLSANLAMTMNVFALGVYSRRAEFTERFGAEFVDGLLAGLGSAQETLIRKTRFFMATLRKPAV
B11: pMT1_R160V: pMT1 with R160V (protein)
chain: MPQEARTPQQQVTADEVGDWYDKFGEVYHLTLGESVHCGLWFPPDAPVPQDMELVTMSSQAQDRYTDYLIETLDPKAGQHLLDIGCGTGRTALKAARQRGIAVTGVAVSKEQIAAANRLAAGHGLTERLTFEVADAMRLPYEDESFDCAWAIESLCHMDVAKALGEAWRVLKPGGDLLVLESVVTEELTEPETALFETLYAANVPPRLGEFFDIVSGAGFHTLSLKDLSANLAMTMNVFALGVYSRRAEFTERFGAEFVDGLLAGLGSAQETLIRKTRFFMATLRKPAV
B12: pMT1_R160W: pMT1 with R160W (protein)
chain: MPQEARTPQQQVTADEVGDWYDKFGEVYHLTLGESVHCGLWFPPDAPVPQDMELVTMSSQAQDRYTDYLIETLDPKAGQHLLDIGCGTGRTALKAARQRGIAVTGVAVSKEQIAAANRLAAGHGLTERLTFEVADAMRLPYEDESFDCAWAIESLCHMDWAKALGEAWRVLKPGGDLLVLESVVTEELTEPETALFETLYAANVPPRLGEFFDIVSGAGFHTLSLKDLSANLAMTMNVFALGVYSRRAEFTERFGAEFVDGLLAGLGSAQETLIRKTRFFMATLRKPAV
B13: pMT1_S182T: pMT1 with S182T (protein)
chain: MPQEARTPQQQVTADEVGDWYDKFGEVYHLTLGESVHCGLWFPPDAPVPQDMELVTMSSQAQDRYTDYLIETLDPKAGQHLLDIGCGTGRTALKAARQRGIAVTGVAVSKEQIAAANRLAAGHGLTERLTFEVADAMRLPYEDESFDCAWAIESLCHMDRAKALGEAWRVLKPGGDLLVLETVVTEELTEPETALFETLYAANVPPRLGEFFDIVSGAGFHTLSLKDLSANLAMTMNVFALGVYSRRAEFTERFGAEFVDGLLAGLGSAQETLIRKTRFFMATLRKPAV
B14: pMT1_Y200T: pMT1 with Y200T (protein)
chain: MPQEARTPQQQVTADEVGDWYDKFGEVYHLTLGESVHCGLWFPPDAPVPQDMELVTMSSQAQDRYTDYLIETLDPKAGQHLLDIGCGTGRTALKAARQRGIAVTGVAVSKEQIAAANRLAAGHGLTERLTFEVADAMRLPYEDESFDCAWAIESLCHMDRAKALGEAWRVLKPGGDLLVLESVVTEELTEPETALFETLTAANVPPRLGEFFDIVSGAGFHTLSLKDLSANLAMTMNVFALGVYSRRAEFTERFGAEFVDGLLAGLGSAQETLIRKTRFFMATLRKPAV
B15: pMT1_Y200V: pMT1 with Y200V (protein)
chain: MPQEARTPQQQVTADEVGDWYDKFGEVYHLTLGESVHCGLWFPPDAPVPQDMELVTMSSQAQDRYTDYLIETLDPKAGQHLLDIGCGTGRTALKAARQRGIAVTGVAVSKEQIAAANRLAAGHGLTERLTFEVADAMRLPYEDESFDCAWAIESLCHMDRAKALGEAWRVLKPGGDLLVLESVVTEELTEPETALFETLVAANVPPRLGEFFDIVSGAGFHTLSLKDLSANLAMTMNVFALGVYSRRAEFTERFGAEFVDGLLAGLGSAQETLIRKTRFFMATLRKPAV
B16: pMT1_Y200W: pMT1 with Y200W (protein)
chain: MPQEARTPQQQVTADEVGDWYDKFGEVYHLTLGESVHCGLWFPPDAPVPQDMELVTMSSQAQDRYTDYLIETLDPKAGQHLLDIGCGTGRTALKAARQRGIAVTGVAVSKEQIAAANRLAAGHGLTERLTFEVADAMRLPYEDESFDCAWAIESLCHMDRAKALGEAWRVLKPGGDLLVLESVVTEELTEPETALFETLWAANVPPRLGEFFDIVSGAGFHTLSLKDLSANLAMTMNVFALGVYSRRAEFTERFGAEFVDGLLAGLGSAQETLIRKTRFFMATLRKPAV

The first assay is described as follows: Cell lysate reaction of pMT enzymes with psi-ionone, irones quantified by HS-SPME-GCMS. The assay is classed as biochemical. Conditions: pMT1_E153 mutants; AUC vs non-mutated (=1). The gist of the method:
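pMT1 site-saturation mutants were expressed in E. coli BL21(DE3) and lysed, and lysates were incubated 2 days at 28 °C with 0.2 mM SAM and 10 mg/L psi-ionone (plus caryophyllene) in 50 mM Tris pH 7, 10 mM MgCl2. Cis-α-irone was measured by HS-SPME-GCMS peak area and given as fold change over non-mutated enzyme.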
Consider B1, for which the “fold change in cis-α-irone produced” value is reported as 0.0. B2: the “fold change in cis-α-irone produced” value came to 0.0. On the same count and under the same terms, next, B3: 0.0; B4: 0.0.

Still in this assay, the particulars now being: pMT1_M236 mutants; AUC vs non-mutated (=1).
B5: the “fold change in cis-α-irone produced” value amounted to 1.7. For the molecule B6, the “fold change in cis-α-irone produced” value worked out at 0.7. With B7, the “fold change in cis-α-irone produced” value is given as 0.0. Turning to B8, the “fold change in cis-α-irone produced” value is 0.2.

Still in this assay, the particulars now being: pMT1_R160 mutants; AUC vs non-mutated (=1).
Consider B9, for which the “fold change in cis-α-irone produced” value is 1.2. On to B10, for which the “fold change in cis-α-irone produced” value was determined as 1.3.

For the molecule B11, the “fold change in cis-α-irone produced” value is 1.5. Same read-out and setting: under B12 stands 0.7.

Staying with this assay, now noted: pMT1_S182 mutants; AUC vs non-mutated (=1).
B13: the “fold change in cis-α-irone produced” value was 0.23.

The assay is the same for the next values; noted with them: pMT1_Y200 mutants; AUC vs non-mutated (=1).
With B14, the “fold change in cis-α-irone produced” value came to 0.0.

Regarding B15, the “fold change in cis-α-irone produced” value was 1.1.

For B16, the “fold change in cis-α-irone produced” value is recorded as 2.1.
